{
  "source": "paper PMC10403363",
  "about": "“Mechanism of ribosome-associated mRNA degradation during tubulin autoregulation” (Molecular Cell, 2023)",
  "binders": {"B1": {"name": "human 6xHis-TEV-Twin-Strep-TTC5 (natural protein)", "chain": "MMADEEEEVKPILQKLQELVDQLYSFRDCYFETHSVEDAGRKQQDVQKEMEKTLQQMEEVVGSVQGKAQVLMLTGKALNVTPDYSPKAEELLSKAVKLEPELVEAWNQLGEVYWKKGDVAAAHTCFSGALTHCRNKVSLQNLSMVLRQLRTDTEDEHSHHVMDSVRQAKLAVQMDVHDGRSWYILGNSYLSLYFSTGQNPKISQQALSAYAQAEKVDRKASSNPDLHLNRATLHKYEESYGEALEGFSRAAALDPAWPEPRQREQQLLEFLDRLTSLLESKGKVKTKKLQSMLGSLRPAHLGPCSDGHYQSASGQKVTLELKPLSTLQPGVNSGAVILGKVVFSLTTEEKVPFTFGLVDSDGPCYAVMVYNIVQSWGVLIGDSVAIPEPNLRLHRIQHKGKDYSFSSVRVETPLLLVVNGKPQGSSSQAVATVASRPQCE", "notes": "tetratricopeptide repeat protein 5 (TTC5), human; TEV site between the 6xHis and the Twin-Strep tag; also called tetratricopeptide repeat protein 5; source: E. coli BL21(DE3), purified (Ni-NTA, Streptactin Sepharose); not shown: Twin-Strep, N-terminal, kept"}},
  "key": {"[1]": {"target": "T1, human SCAPER-FLAG (recombinant, purified) (human, UniProt Q9BY12 1-1400)", "T1 construct": "SCAPER, human cDNA from Genscript; construct names (aa351-1400) imply 1400 residues; also called S-phase cyclin A associated protein residing in the ER; source: Expi293 cells, transfected, purified (anti-FLAG resin, 3xFLAG peptide elution); not shown: FLAG, C-terminal, kept", "T1 sequence": "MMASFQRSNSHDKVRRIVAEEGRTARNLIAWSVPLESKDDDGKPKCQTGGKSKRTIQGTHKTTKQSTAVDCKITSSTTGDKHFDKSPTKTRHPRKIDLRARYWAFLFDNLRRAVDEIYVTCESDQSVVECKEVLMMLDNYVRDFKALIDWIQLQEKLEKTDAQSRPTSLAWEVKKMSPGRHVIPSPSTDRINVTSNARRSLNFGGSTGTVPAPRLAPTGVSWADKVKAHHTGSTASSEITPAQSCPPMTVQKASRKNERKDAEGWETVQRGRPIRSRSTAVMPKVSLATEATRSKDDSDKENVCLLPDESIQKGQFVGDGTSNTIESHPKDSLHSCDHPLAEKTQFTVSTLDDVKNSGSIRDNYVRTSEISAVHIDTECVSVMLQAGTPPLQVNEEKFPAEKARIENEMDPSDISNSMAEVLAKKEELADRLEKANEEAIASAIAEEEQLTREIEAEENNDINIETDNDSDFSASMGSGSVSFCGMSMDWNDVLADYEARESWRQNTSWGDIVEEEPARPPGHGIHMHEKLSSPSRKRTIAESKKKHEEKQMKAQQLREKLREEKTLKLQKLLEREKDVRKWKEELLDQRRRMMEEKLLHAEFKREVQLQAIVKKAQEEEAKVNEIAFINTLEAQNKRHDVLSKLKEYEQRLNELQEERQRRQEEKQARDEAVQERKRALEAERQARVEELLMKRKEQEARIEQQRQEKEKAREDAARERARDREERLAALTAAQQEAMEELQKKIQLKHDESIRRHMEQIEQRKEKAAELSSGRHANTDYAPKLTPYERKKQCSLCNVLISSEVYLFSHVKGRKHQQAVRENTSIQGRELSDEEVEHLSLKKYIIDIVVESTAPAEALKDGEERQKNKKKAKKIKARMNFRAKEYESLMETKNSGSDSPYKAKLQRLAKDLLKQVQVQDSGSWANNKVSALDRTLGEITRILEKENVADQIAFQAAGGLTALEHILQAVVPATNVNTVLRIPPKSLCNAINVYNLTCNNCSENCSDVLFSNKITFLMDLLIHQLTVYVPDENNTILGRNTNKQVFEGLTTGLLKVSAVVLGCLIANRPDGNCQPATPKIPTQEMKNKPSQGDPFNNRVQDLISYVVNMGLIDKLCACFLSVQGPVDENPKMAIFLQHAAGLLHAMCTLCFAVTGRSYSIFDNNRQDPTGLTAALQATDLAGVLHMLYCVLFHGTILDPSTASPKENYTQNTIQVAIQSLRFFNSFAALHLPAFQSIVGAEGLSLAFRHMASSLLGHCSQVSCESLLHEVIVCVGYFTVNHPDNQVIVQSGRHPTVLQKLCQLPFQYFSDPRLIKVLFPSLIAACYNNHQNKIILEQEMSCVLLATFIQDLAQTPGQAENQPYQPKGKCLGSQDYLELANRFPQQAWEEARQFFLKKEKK", "test": "pull-down; 100 nM SCAPER-FLAG and 150 nM Strep-TTC5 in IP buffer (50 mM HEPES pH 7.4, 100 mM KAc, 5 mM MgAc2, 1 mM DTT, 0.01% digitonin), 4°C; Streptactin magnetic beads; Coomassie", "settings": "both partners purified"}, "[2]": {"target": "T2, human FLAG-SCAPER (recombinant, purified) (human, UniProt Q9BY12 1-1400)", "T2 construct": "SCAPER, human cDNA from Genscript recloned with an N-terminal FLAG tag; construct names (aa351-1400) imply 1400 residues; In the cryo-EM map only the part from residue 859 on (CTD) was resolved; also called recombinant SCAPER; source: Expi293 cells, transfected, purified (anti-FLAG resin, 3xFLAG peptide elution); not shown: FLAG, N-terminal, kept", "T2 sequence": "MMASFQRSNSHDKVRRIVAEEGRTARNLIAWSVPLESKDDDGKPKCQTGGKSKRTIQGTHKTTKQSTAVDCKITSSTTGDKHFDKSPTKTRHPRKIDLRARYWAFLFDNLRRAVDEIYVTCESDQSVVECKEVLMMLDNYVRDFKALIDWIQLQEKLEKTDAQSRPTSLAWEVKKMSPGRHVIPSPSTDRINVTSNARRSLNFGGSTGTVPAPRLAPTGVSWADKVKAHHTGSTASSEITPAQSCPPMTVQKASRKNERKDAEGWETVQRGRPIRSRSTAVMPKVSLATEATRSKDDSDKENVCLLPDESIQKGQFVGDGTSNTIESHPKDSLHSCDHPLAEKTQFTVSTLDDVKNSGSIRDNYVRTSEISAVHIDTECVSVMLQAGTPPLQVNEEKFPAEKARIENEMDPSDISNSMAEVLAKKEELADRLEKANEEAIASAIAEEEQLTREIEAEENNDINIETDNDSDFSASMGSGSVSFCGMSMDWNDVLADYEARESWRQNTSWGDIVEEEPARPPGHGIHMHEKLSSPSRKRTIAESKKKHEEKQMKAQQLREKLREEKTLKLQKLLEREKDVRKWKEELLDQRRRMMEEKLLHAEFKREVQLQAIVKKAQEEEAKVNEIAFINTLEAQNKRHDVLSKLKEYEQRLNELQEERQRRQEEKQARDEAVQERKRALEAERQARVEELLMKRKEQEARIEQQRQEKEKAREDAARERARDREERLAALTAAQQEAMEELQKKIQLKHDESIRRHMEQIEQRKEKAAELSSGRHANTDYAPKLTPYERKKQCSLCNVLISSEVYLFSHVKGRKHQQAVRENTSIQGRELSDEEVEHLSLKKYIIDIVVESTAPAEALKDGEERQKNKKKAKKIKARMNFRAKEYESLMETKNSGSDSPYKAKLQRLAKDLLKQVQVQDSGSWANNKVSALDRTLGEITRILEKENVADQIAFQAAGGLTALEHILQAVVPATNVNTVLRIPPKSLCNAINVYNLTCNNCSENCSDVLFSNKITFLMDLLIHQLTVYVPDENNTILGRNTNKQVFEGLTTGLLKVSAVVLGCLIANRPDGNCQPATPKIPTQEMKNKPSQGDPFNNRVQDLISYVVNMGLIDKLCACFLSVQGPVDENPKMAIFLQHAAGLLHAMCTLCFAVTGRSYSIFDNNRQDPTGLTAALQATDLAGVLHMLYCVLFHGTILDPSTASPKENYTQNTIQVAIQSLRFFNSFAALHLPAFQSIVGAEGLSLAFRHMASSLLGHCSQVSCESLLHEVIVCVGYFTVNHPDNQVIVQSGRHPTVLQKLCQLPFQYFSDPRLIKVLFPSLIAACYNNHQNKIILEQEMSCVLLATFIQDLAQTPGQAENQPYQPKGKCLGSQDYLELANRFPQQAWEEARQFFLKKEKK", "test": "cryo-EM structure; β-tubulin RNCs from rabbit reticulocyte lysate with recombinant Strep-TTC5 and FLAG-SCAPER, affinity purified via TTC5; SCAPER with TTC5", "settings": "both partners purified"}},
  "data": [
    {"binder": "B1", "values": [
      {"measurement": "binding result", "setting": "[1]", "result": "binds"},
      {"measurement": "binding result", "setting": "[2]", "result": "binds"}
    ]}
  ]
}
